Measured values published in IntAct's records for PubMed 30564455.

target: ddb1_human DDB1 (UniProt Q16531)
Sequence (Q16531 whole entry): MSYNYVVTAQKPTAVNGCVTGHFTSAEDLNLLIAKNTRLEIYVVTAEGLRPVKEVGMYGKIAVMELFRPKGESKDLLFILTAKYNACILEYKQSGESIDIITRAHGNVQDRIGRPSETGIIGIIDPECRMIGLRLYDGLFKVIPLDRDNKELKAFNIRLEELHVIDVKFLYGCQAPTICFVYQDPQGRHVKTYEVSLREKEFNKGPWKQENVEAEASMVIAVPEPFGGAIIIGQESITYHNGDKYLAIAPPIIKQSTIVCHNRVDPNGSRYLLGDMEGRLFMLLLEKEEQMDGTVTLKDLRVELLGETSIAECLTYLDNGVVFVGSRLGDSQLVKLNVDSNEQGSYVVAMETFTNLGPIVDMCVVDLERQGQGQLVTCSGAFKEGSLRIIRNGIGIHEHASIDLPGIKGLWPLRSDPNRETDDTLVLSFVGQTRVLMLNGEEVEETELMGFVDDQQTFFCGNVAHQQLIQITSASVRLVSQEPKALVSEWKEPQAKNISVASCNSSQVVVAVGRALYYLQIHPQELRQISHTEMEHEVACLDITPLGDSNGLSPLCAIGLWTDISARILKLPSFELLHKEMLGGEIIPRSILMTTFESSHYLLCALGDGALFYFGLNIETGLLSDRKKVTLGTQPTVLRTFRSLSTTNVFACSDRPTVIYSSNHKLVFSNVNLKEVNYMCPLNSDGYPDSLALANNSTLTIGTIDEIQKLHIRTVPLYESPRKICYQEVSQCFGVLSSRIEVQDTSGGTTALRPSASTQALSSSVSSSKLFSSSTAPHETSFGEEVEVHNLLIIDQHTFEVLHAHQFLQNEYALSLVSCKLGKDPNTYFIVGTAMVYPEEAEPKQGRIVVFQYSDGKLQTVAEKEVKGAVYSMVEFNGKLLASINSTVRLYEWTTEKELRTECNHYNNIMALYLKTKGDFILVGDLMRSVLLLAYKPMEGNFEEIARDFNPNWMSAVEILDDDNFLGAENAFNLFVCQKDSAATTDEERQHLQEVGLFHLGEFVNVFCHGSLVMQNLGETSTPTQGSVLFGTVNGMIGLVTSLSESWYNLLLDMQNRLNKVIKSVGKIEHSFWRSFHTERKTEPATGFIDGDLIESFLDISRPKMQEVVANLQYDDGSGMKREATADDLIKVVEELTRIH

Row | Substance | effect of a mutation on the interaction
1 | DET1- and DDB1-associated protein 1 (Homo sapiens) (from UniProt Q9BW61) F16D | disrupting interaction strength
2 | DET1- and DDB1-associated protein 1 (Homo sapiens) (from UniProt Q9BW61) H20D | disrupting interaction strength
3 | DET1- and DDB1-associated protein 1 (Homo sapiens) (from UniProt Q9BW61) N15D | disrupting interaction strength
4 | DET1- and DDB1-associated protein 1 (Homo sapiens) (from UniProt Q9BW61) P9D | disrupting interaction strength
